Biological target: T1, rOmpR (OmpR-6xHis) (Klebsiella pneumoniae ATCC43816?) (UniProt A6TF28)
T1 sequence: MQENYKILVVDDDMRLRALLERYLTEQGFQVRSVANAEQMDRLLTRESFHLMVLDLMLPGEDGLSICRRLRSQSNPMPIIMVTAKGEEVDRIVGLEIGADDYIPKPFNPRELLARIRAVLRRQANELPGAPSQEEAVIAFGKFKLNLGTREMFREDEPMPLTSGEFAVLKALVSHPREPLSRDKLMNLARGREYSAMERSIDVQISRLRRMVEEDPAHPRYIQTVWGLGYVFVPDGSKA
Assay: EMSA

Sequence: ACAGAACGCTGAAATGCACGGAAAGTTGTCCGTTGGAAAATAATTAAACATTTATTCACTATTTTGCTACTTATTGTTTGAAATCACGGGGCGTCACCGTATAATTTGTCCGCTTTTTGATGCTTGACTCTTCGTCTTAAAGGACGTTTTATACGACACGCGACATACCTCAAAGGGAGCAGG (double strand) [Patp2]
- binding: no binding

— PMC10269446
